First the molecules themselves.
B1: STEAP1 (parent)
chain: WMLTRKQFGLLSFFFAVLHAIYSL
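Also: lentivirally expressed fusions sorted by FACS into six bins by GFP to DsRed ratio, PSI derived from sequencing read proportions per bin multiplied by bin number.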

The variants in this series derive from B1. The series can be described thus: protein stability index of a GFP-peptide fusion (GPS, HEK-293T) (PSI 1-6); higher = more stable. The conditions noted are these: c terminus: a fixed tail appended.
On to WMLQRKQFGLLSFFFAVLHAIYSL, for which the protein stability index was 2.35.

With WMLSRKQFGLLSFFFAVLHAIYSL, the protein stability index was determined as 1.62.

On to WMLIRKQFGLLSFFFAVLHAIYSL, for which the protein stability index amounted to 2.3.

Regarding WMLGRKQFGLLSFFFAVLHAIYSL, the protein stability index was found to be 1.63.

WMLARKQFGLLSFFFAVLHAIYSL: the protein stability index turned out to be 1.28.

As to WMLCRKQFGLLSFFFAVLHAIYSL, the protein stability index came out at 1.8.

Consider WMLRRKQFGLLSFFFAVLHAIYSL, for which the protein stability index is 1.59.

Turning to WMLWRKQFGLLSFFFAVLHAIYSL, the protein stability index came to 1.89.

On to WMLHRKQFGLLSFFFAVLHAIYSL, for which the protein stability index stood at 1.6.

Take WMLDRKQFGLLSFFFAVLHAIYSL: the protein stability index was found to be 1.66.

As to WMLERKQFGLLSFFFAVLHAIYSL, the protein stability index is 1.1.

Take WMLKRKQFGLLSFFFAVLHAIYSL: the protein stability index stood at 2.13.

As to WMLVRKQFGLLSFFFAVLHAIYSL, the protein stability index amounted to 1.92.

Regarding WMLFRKQFGLLSFFFAVLHAIYSL, the protein stability index is 2.31.

For the variant WMLNRKQFGLLSFFFAVLHAIYSL, the protein stability index worked out at 1.99.

Take WMLYRKQFGLLSFFFAVLHAIYSL: the protein stability index amounted to 1.41.

For the variant WMLPRKQFGLLSFFFAVLHAIYSL, the protein stability index is 1.7.

As for WMLLRKQFGLLSFFFAVLHAIYSL, the protein stability index was 2.77.

Consider WMLMRKQFGLLSFFFAVLHAIYSL, for which the protein stability index came to 1.69.

As to WMLTRKMFGLLSFFFAVLHAIYSL, the protein stability index amounted to 3.42.

With WMLTRKAFGLLSFFFAVLHAIYSL, the protein stability index turned out to be 2.49.

On to WMLTRKLFGLLSFFFAVLHAIYSL, for which the protein stability index stood at 1.94.

For the variant WMLTRKEFGLLSFFFAVLHAIYSL, the protein stability index is 1.21.

On to WMLTRKIFGLLSFFFAVLHAIYSL, for which the protein stability index stood at 1.61.

For the variant WMLTRKHFGLLSFFFAVLHAIYSL, the protein stability index came to 2.53.

As to WMLTRKNFGLLSFFFAVLHAIYSL, the protein stability index came out at 2.23.

Turning to WMLTRKKFGLLSFFFAVLHAIYSL, the protein stability index stood at 1.8.

In the case of WMLTRKCFGLLSFFFAVLHAIYSL, the protein stability index stood at 1.82.

Consider WMLTRKPFGLLSFFFAVLHAIYSL, for which the protein stability index was found to be 1.45.

For the variant WMLTRKGFGLLSFFFAVLHAIYSL, the protein stability index stood at 1.78.

On to WMLTRKRFGLLSFFFAVLHAIYSL, for which the protein stability index was determined as 1.7.

In the case of WMLTRKTFGLLSFFFAVLHAIYSL, the protein stability index amounted to 2.17.

As for WMLTRKSFGLLSFFFAVLHAIYSL, the protein stability index amounted to 1.52.

Turning to WMLTRKFFGLLSFFFAVLHAIYSL, the protein stability index was determined as 1.47.

As for WMLTRKDFGLLSFFFAVLHAIYSL, the protein stability index is 2.01.

Turning to WWLTRKQFGLLSFFFAVLHAIYSL, the protein stability index amounted to 1.75.

On to WELTRKQFGLLSFFFAVLHAIYSL, for which the protein stability index was determined as 2.08.

For the variant WFLTRKQFGLLSFFFAVLHAIYSL, the protein stability index was 1.73.

With WLLTRKQFGLLSFFFAVLHAIYSL, the protein stability index is 1.97.

For WVLTRKQFGLLSFFFAVLHAIYSL, the protein stability index came out at 1.85.

As for WKLTRKQFGLLSFFFAVLHAIYSL, the protein stability index was 1.78.

With WRLTRKQFGLLSFFFAVLHAIYSL, the protein stability index amounted to 1.9.

As to WSLTRKQFGLLSFFFAVLHAIYSL, the protein stability index was 1.52.

In the case of WCLTRKQFGLLSFFFAVLHAIYSL, the protein stability index turned out to be 1.49.

With WNLTRKQFGLLSFFFAVLHAIYSL, the protein stability index was 2.18.

In the case of WALTRKQFGLLSFFFAVLHAIYSL, the protein stability index was found to be 1.74.

With WTLTRKQFGLLSFFFAVLHAIYSL, the protein stability index amounted to 1.94.

Take WGLTRKQFGLLSFFFAVLHAIYSL: the protein stability index turned out to be 1.46.

WPLTRKQFGLLSFFFAVLHAIYSL: the protein stability index stood at 2.23.

In the case of WYLTRKQFGLLSFFFAVLHAIYSL, the protein stability index was 1.99.

WDLTRKQFGLLSFFFAVLHAIYSL: the protein stability index turned out to be 1.58.

For the variant WILTRKQFGLLSFFFAVLHAIYSL, the protein stability index came to 1.64.

For the variant WQLTRKQFGLLSFFFAVLHAIYSL, the protein stability index was 1.77.

With WHLTRKQFGLLSFFFAVLHAIYSL, the protein stability index was 1.7.

Regarding WMITRKQFGLLSFFFAVLHAIYSL, the protein stability index worked out at 2.59.

For WMDTRKQFGLLSFFFAVLHAIYSL, the protein stability index stood at 2.93.

As for WMETRKQFGLLSFFFAVLHAIYSL, the protein stability index turned out to be 1.57.

For WMRTRKQFGLLSFFFAVLHAIYSL, the protein stability index turned out to be 1.71.

As for WMYTRKQFGLLSFFFAVLHAIYSL, the protein stability index amounted to 2.06.

Consider WMMTRKQFGLLSFFFAVLHAIYSL, for which the protein stability index amounted to 2.22.

For WMNTRKQFGLLSFFFAVLHAIYSL, the protein stability index stood at 2.1.

Consider WMQTRKQFGLLSFFFAVLHAIYSL, for which the protein stability index was found to be 2.05.

On to WMGTRKQFGLLSFFFAVLHAIYSL, for which the protein stability index came to 1.76.

In the case of WMVTRKQFGLLSFFFAVLHAIYSL, the protein stability index worked out at 1.52.

Take WMWTRKQFGLLSFFFAVLHAIYSL: the protein stability index came out at 1.73.

For the variant WMHTRKQFGLLSFFFAVLHAIYSL, the protein stability index was found to be 2.09.

For WMFTRKQFGLLSFFFAVLHAIYSL, the protein stability index came out at 2.74.

Take WMATRKQFGLLSFFFAVLHAIYSL: the protein stability index was 1.73.

For the variant WMSTRKQFGLLSFFFAVLHAIYSL, the protein stability index was 1.66.

On to WMPTRKQFGLLSFFFAVLHAIYSL, for which the protein stability index came to 2.27.

WMCTRKQFGLLSFFFAVLHAIYSL: the protein stability index turned out to be 3.54.

For the variant WMKTRKQFGLLSFFFAVLHAIYSL, the protein stability index was found to be 1.71.

In the case of WMTTRKQFGLLSFFFAVLHAIYSL, the protein stability index came to 2.36.

On to WMLTRSQFGLLSFFFAVLHAIYSL, for which the protein stability index is 2.85.

As for WMLTRTQFGLLSFFFAVLHAIYSL, the protein stability index worked out at 2.08.

As for WMLTRFQFGLLSFFFAVLHAIYSL, the protein stability index is 1.79.

Regarding WMLTRRQFGLLSFFFAVLHAIYSL, the protein stability index stood at 1.88.

In the case of WMLTRPQFGLLSFFFAVLHAIYSL, the protein stability index was 1.8.

Regarding WMLTRLQFGLLSFFFAVLHAIYSL, the protein stability index came out at 3.1.

As for WMLTRYQFGLLSFFFAVLHAIYSL, the protein stability index was found to be 3.86.

On to WMLTRNQFGLLSFFFAVLHAIYSL, for which the protein stability index amounted to 2.32.

With WMLTRCQFGLLSFFFAVLHAIYSL, the protein stability index turned out to be 2.16.

As for WMLTRHQFGLLSFFFAVLHAIYSL, the protein stability index was 3.26.

With WMLTRDQFGLLSFFFAVLHAIYSL, the protein stability index stood at 1.18.

As for WMLTRQQFGLLSFFFAVLHAIYSL, the protein stability index amounted to 2.48.

For WMLTRMQFGLLSFFFAVLHAIYSL, the protein stability index is 2.07.

For WMLTREQFGLLSFFFAVLHAIYSL, the protein stability index was determined as 2.56.

With WMLTRVQFGLLSFFFAVLHAIYSL, the protein stability index amounted to 3.54.

In the case of YMLTRKQFGLLSFFFAVLHAIYSL, the protein stability index turned out to be 2.37.

SMLTRKQFGLLSFFFAVLHAIYSL: the protein stability index was found to be 1.58.

Consider KMLTRKQFGLLSFFFAVLHAIYSL, for which the protein stability index turned out to be 1.63.

In the case of NMLTRKQFGLLSFFFAVLHAIYSL, the protein stability index stood at 2.35.

On to IMLTRKQFGLLSFFFAVLHAIYSL, for which the protein stability index was 2.44.

For the variant HMLTRKQFGLLSFFFAVLHAIYSL, the protein stability index worked out at 2.1.
